Reference: patent US8663616B2, “Enzymatic peracid generation for use in oral care products” (E I du Pont de Nemours and Company, priority 2010, dated 2014)

B1: EZ-7: C277S-link1-DenP308-H6, SEQ ID NO: 429 (protein)
chain: MAFFDLPLEELKKYRPERYEEKDFDEFWEETLAESEKFPLDPVFERMESHLKTVEAYDVTFSGYRGQRIKGWLLVPKLEEEKLPCVVQYIGYNGGRGFPHDWLFWPSMGYICFVMDTRGQGSGWLKGDTPDYPEGPVDPQYPGFMTRGILDPRTYYYRRVFTDAVRAVEAAASFPQVDQERIVIAGGSQGGGIALAVSALSKKAKALLCDVPFLCHFRRAVQLVDTHPYAEITNFLKTHRDKEEIVFRTLSYFDGVNFAARAKIPALFSVGLMDNISPPSTVFAAYNYYAGPKEIRIYPYNNHEGGGSFQAVEQVKFLKKLFEKGGPGSGGAGSPGSAGGPGSTKPPRTPTANTSRPHHNFGSGGGGSPHHHHHH
B2: EZ-1: Thermotoga maritima acetyl xylan esterase variant C277S, untargeted perhydrolase, SEQ ID NO: 424 (protein, listed as Thermotoga maritima)
chain: MAFFDLPLEELKKYRPERYEEKDFDEFWEETLAESEKFPLDPVFERMESHLKTVEAYDVTFSGYRGQRIKGWLLVPKLEEEKLPCVVQYIGYNGGRGFPHDWLFWPSMGYICFVMDTRGQGSGWLKGDTPDYPEGPVDPQYPGFMTRGILDPRTYYYRRVFTDAVRAVEAAASFPQVDQERIVIAGGSQGGGIALAVSALSKKAKALLCDVPFLCHFRRAVQLVDTHPYAEITNFLKTHRDKEEIVFRTLSYFDGVNFAARAKIPALFSVGLMDNISPPSTVFAAYNYYAGPKEIRIYPYNNHEGGGSFQAVEQVKFLKKLFEKG

Legend:
[1] = Perhydrolase activity of enzyme bound to hydroxyapatite discs, ABTS (Example 7); assay type: biochemical; settings: for Avg Absorbance Background subtract: background = no enzyme, no HAP (0.775); for Avg Absorbance at 5 min: discs incubated in 20 μM enzyme, 6 washes, 0.346% triacetin, 3.46 mM H2O2, A405; for PAA conc μM per disc: enzyme bound to hydroxyapatite disc, 5 min, no enzyme control 1.2
Protocol: (§1) The detection of peracetic acid followed the method described in Pinkernell et. al. (Analyst, 1997, 122, 567) using colorimetric detection of 2,2′-azino-bis(3-ethylbenzothiazoline(-6-sulfonate (ABTS) oxidation by peracetic acid. Following the formation of peracetic acid with the addition of triacetin and hydrogen peroxide, 90 μL of solution was added to 10 μL of 0.1 M H3PO4 in a well plate. 50 μL of 1 M acetic acid, 50 μL of 0.5 g/L ABTS and 50 μL of 0.002 g/L of KI was added. The solution was allowed to develop for 5 min. The absorbance of the solution was measured at 405 nm using a microplate reader. The peracetic acid concentration was calculated based on a standard curve developed simultaneously using peracetic acid reagent solution.
The perhydrolase activity of the fusions once bound to HAP discs surfaces was determined with the same ABTS method. Hydroxyapatite discs (HiMed Inc, Old Bethpage, N.Y.; 5 mm dia.×1.8 mm thick) were incubated in 20 μM enzyme solution (50 mM potassium phosphate buffer pH 7.2) for 60 min followed by 6 times of washes (50 mM potassium phosphate buffer pH 7.2). The discs with enzyme adsorbed were transferred to new wells and 200 μL of phosphate buffer (10 mM pH 7.2), 30 μL of 3% triacetin (final concentration of 0.346%) and 30 μL of 30 mM H2O2 (final concentration of 3.46 mM) were added. The solution was allowed to incubate at room temperature for 5 min. 90 μL of solution was pipetted to a new well containing 10 μL of 100 mM H3PO4. 50 μL of acetic acid, 50 μL KI, 50 μL ABTS were added as described above. The solution was developed for 5 min at room temperature and read at A405 nm.

[2] = Peracetic acid generated in solution by CE-7 perhydrolase fusions (Example 8); assay type: biochemical; settings: 0.5 μM enzyme, 100 mM triacetin, 100 mM H2O2, pH 7.2, 10 min, 37° C.; no enzyme 378.9
Protocol: as §1
Perhydrolase enzymes listed in Table 6 were assessed for solution activities. The method to measure the perhydrolase in solution activity was described in Example 7 by making a 500 μL solution containing 0.5 μM of enzyme, 100 mM triacetin, 100 mM H2O2 in 100 mM phosphate buffer, pH 7.2. The solution was mixed and incubated for 10 min at 37° C. A 10 μL aliquot was removed and diluted for detection as described in Example 7. Peracetic acid concentration was determined using a standard curve generated with a stock solution of peracetic acid (Aldrich). The experiment was also performed with no enzyme present as a control.

[3] = Peracetic acid generation from hydroxyapatite bound CE-7 perhydrolase fusions (Example 8); assay type: biochemical; settings: hydroxyapatite particles exposed to 10 μM enzyme, washed; 100 mM triacetin, 100 mM H2O2, 30 min, 37° C.; no enzyme 30-118.8
Summary of the method: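 Enzyme (10 μM) bound to washed hydroxyapatite particles in 10 mM phosphate pH 7.2 for 30 min, washed three times, then given 100 mM triacetin plus 100 mM H2O2 in 100 mM phosphate pH 7.2, 30 min, 37 °C. Peracetic acid read by ABTS oxidation at 405 nm against standard curve; no-enzyme control.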

[4] = T. maritima C277S/C277T constructs, peracetic acid in solution (Example 11); assay type: biochemical; settings: 0.5 μM enzyme, 100 mM triacetin, 100 mM H2O2, pH 7.2, 10 min, 37° C.; no enzyme 114
Protocol: as §1
Perhydrolase enzymes listed in Table 5 were assessed for enzyme activity in solution as described in Example 7. The enzyme activity in solution was measured by making a 500 μl solution of 0.5 μM of each enzyme in 100 mM triacetin, 100 mM H2O2 and 10 mM phosphate buffer, pH 7.2. The solution was incubated for 10 min, at 37° C. After the reaction was stopped by mixing an aliquot with H3PO4, a 10 μL aliquot was removed for proper dilution, and then detected via ABTS oxidation as described in Example 7.

[5] = Peracetic acid generated in solution by C277S CXH fusions (Example 9); settings: 0.5 μM enzyme, sarkosyl buffer, 100 mM triacetin, 100 mM H2O2, pH 7.2, 10 min, 37° C.
[6] = Peracetic acid from C277S CXH fusions exposed to hydroxyapatite discs (Example 9); settings: no enzyme control subtracted
[7] = Two-step bleaching of coffee-tea stained bovine enamel (Example 16)
Protocol: Bovine enamel incisors were prepared as indicated in Example 1. The stained enamel blocks were embedded in a 48 well plate to protect the dentin backside from solution exposure. A solution of 10 μM of each enzyme in 10 mM phosphate buffer, pH 7.2 was prepared and 500 μL of solution was incubated with each enamel substrate for 60 min. The enzyme solution was removed and each well was rinsed three times with an additional 500 μL of buffer. The enamel blocks were placed in a fresh well for the whitening process. A solution with a final concentration of 40 mM triacetin, 100 mM H2O2 in 50 mM phosphate pH 7.2 buffer was freshly prepared and 500 μL of solution was added to each enamel block. Over the course of 1 hr the enamel blocks were removed and a color measurement was obtained and then each was returned to the solution in the well plate. The whiteness index for each sample was monitored.

Row | Molecule | Avg Absorbance Background subtract [1] | Avg Absorbance at 5 min [1] | PAA conc μM per disc [1] | activity when bound to hydroxyapatite (in words) ([1]; with addition of triacetin and hydrogen peroxide) | PAA (ppm) [2] | Peracetic acid (ppm) [3] | Peracetic acid (ppm) In Solution [4] | Peracetic acid (ppm) In Solution [5] | Peracetic acid (ppm) Exposed to Hydroxyapatite, Disc ([6]; disc-bound enzyme, 100 mM triacetin, 100 mM H2O2, 30 min, 37° C.) | Peracetic acid (ppm) Exposed to Hydroxyapatite, Supernatant ([6]; unbound enzyme in supernatant after 10 μM enzyme on disc) | retention on hydroxyapatite and enamel (in words) ([7]; 2-step process) | Whiteness Index 0 min ([7]; two-step: 10 μM enzyme 60 min, rinsed, then 40 mM triacetin, 100 mM H2O2, pH 7.2, before step 2) | ΔWI ([7]; two-step, 0 to 60 min) | Whiteness Index 5 min ([7]; two-step, 5 min in triacetin/H2O2) | Whiteness Index 15 min ([7]; two-step, 15 min in triacetin/H2O2) | Whiteness Index 30 min ([7]; two-step, 30 min in triacetin/H2O2) | Whiteness Index 45 min ([7]; two-step, 45 min in triacetin/H2O2) | Whiteness Index 60 min ([7]; two-step, 60 min in triacetin/H2O2)
1 | B1 | 1.450 | 1.45 | 23.5 μM per disc | active enzymes when bound to hydroxyapatite | 4877.2 ppm | 4453.7 ppm | 5519 ppm | 5471 ppm | 2017 ppm | 4864 ppm | – | – | – | – | – | – | – | –
2 | B2 | 0.126 | 0.901 | 3.5 μM per disc | – | – | – | 4270 ppm | – | – | – | poor retention on hydroxyapatite and enamel | −152.7 | 56.6 | −126.2 | −138.9 | −144.8 | −107.3 | −96.1
